According to patent US20040018561:

Legend:
[1] = tested on: N-2-[(7-methoxy-2-oxo-2H-chromen-4-yl)acetyl]-L-arginyl-L-prolyl-L-leucylglycyl-6-(benzyloxy)-L-norleucyl-3-[(2,4-dinitrophenyl)amino]-L-alanyl-L-alanyl-L-arginyl-L-alpha-glutamyl-L-argininamide
[2] = tested on: N-2-[(7-methoxy-2-oxo-2H-chromen-4-yl)acetyl]-D-arginyl-L-prolyl-L-leucylglycyl-6-(benzyloxy)-L-norleucyl-3-[(2,4-dinitrophenyl)amino]-L-alanyl-L-alanyl-D-arginyl-D-alpha-glutamyl-D-argininamide
[3] = tested on: N-2-[(7-methoxy-2-oxo-2H-chromen-4-yl)acetyl]-D-arginyl-L-prolyl-L-leucylglycyl-6-phenoxy-L-norleucyl-3-[(2,4-dinitrophenyl)amino]-L-alanyl-L-alanyl-D-arginyl-D-alpha-glutamyl-D-argininamide
[4] = tested on: N-2-[(7-methoxy-2-oxo-2H-chromen-4-yl)acetyl]-L-arginyl-L-prolyl-L-leucylglycyl-L-leucyl-3-[(2,4-dinitrophenyl)amino]-L-alanyl-L-alanyl-D-arginyl-D-alpha-glutamyl-D-argininamide
[5] = tested on: N-2-[(7-methoxy-2-oxo-2H-chromen-4-yl)acetyl]-D-arginyl-L-prolyl-L-leucylglycyl-L-leucyl-3-[(2,4-dinitrophenyl)amino]-L-alanyl-L-alanyl-D-arginyl-D-alpha-glutamyl-D-argininamide
[6] = tested on: N-2-[(7-methoxy-2-oxo-2H-chromen-4-yl)acetyl]-L-arginyl-L-prolyl-L-leucylglycyl-L-leucyl-3-[(2,4-dinitrophenyl)amino]-L-alanyl-L-alanyl-L-arginyl-L-alpha-glutamyl-L-argininamide

MMP-3, sequence (chain, as listed by the source): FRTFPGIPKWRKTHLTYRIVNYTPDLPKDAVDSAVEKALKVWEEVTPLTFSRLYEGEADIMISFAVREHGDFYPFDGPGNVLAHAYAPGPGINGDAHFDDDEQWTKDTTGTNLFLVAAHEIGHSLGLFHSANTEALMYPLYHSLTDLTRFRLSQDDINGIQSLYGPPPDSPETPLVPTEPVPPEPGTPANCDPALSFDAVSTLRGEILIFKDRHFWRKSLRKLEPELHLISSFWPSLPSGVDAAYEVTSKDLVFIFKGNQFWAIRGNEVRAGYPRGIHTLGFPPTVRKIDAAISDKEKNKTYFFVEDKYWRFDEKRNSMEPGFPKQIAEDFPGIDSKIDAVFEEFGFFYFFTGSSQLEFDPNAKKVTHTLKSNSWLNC
MMP-9, sequence (chain, as listed by the source): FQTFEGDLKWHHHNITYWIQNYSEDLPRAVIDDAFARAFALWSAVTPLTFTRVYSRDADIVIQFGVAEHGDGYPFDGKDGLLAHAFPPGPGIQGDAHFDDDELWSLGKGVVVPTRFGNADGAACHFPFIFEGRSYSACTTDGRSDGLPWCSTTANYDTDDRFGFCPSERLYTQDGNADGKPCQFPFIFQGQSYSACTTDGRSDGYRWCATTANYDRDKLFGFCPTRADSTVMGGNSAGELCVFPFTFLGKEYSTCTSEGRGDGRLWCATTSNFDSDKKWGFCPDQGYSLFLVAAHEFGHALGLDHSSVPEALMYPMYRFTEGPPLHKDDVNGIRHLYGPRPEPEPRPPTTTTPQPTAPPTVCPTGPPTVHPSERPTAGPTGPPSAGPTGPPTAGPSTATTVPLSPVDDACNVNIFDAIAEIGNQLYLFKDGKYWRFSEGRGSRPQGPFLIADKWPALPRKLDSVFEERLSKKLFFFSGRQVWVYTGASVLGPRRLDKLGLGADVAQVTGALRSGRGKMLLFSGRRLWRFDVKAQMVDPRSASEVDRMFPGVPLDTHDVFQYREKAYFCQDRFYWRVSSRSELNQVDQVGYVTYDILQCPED
MMP-8, sequence (chain, as listed by the source): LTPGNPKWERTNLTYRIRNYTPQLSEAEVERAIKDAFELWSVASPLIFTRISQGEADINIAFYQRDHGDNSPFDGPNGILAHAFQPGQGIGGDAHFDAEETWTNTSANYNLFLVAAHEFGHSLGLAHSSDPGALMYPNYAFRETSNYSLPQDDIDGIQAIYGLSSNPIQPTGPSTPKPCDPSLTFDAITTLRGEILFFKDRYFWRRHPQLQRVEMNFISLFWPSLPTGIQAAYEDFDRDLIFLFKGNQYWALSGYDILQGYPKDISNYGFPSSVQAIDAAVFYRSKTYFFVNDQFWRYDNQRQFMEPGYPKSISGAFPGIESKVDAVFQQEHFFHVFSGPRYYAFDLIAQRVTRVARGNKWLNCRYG

Substance	Km [1]	kcat/Km [1]	Km [2]	kcat/Km [2]	kcat/Km [3]	Km [4]	kcat/Km [4]	Km [5]	kcat/Km [5]	Km [6]	kcat/Km [6]	Km [3]
MMP-3	85.9 µM	4800 M⁻¹ s⁻¹	28.9 µM	1600 M⁻¹ s⁻¹	0 M⁻¹ s⁻¹	59.5 µM	800 M⁻¹ s⁻¹	14 µM	6300 M⁻¹ s⁻¹	38.7 µM	9800 M⁻¹ s⁻¹	
MMP-8	9.1 µM	179000 M⁻¹ s⁻¹	3.3 µM	146000 M⁻¹ s⁻¹	522000 M⁻¹ s⁻¹	13.3 µM	456000 M⁻¹ s⁻¹	16.7 µM	139000 M⁻¹ s⁻¹	20.1 µM	381000 M⁻¹ s⁻¹	4.4 µM
MMP-9	2.3 µM	1.47e+06 M⁻¹ s⁻¹	3.3 µM	319000 M⁻¹ s⁻¹	1.91e+06 M⁻¹ s⁻¹	8.2 µM	1.33e+06 M⁻¹ s⁻¹	6.4 µM	418000 M⁻¹ s⁻¹	6.2 µM	1.29e+06 M⁻¹ s⁻¹	1.4 µM
MMP-13	0.9 µM	4.24e+06 M⁻¹ s⁻¹	1.5 µM	1.58e+06 M⁻¹ s⁻¹	2.93e+06 M⁻¹ s⁻¹	4.7 µM	4.08e+06 M⁻¹ s⁻¹	9 µM	296000 M⁻¹ s⁻¹	3.9 µM	3.92e+06 M⁻¹ s⁻¹	1.2 µM
